From PMC4635569 (2015) come the findings set out here.

The assay addresses human C3d (human, UniProt P01024 1002-1303). Briefly: SPR. (In general: Surface plasmon resonance follows binding to a sensor surface in real time, without labels.)

Chain of human C3d (P01024 1002-1303): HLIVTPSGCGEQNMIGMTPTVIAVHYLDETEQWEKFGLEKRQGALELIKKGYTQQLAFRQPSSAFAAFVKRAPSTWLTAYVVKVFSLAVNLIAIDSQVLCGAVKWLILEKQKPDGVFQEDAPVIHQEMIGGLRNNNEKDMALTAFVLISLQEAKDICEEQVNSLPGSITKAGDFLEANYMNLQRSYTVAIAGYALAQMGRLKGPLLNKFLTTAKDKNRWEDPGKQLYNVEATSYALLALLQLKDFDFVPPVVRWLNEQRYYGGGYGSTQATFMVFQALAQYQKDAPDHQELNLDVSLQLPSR

B1: (D39)PspCN:FH complex (plasma-derived FH) (complex)
chain 1: EDCNELPPRRNTEILTGSWSDQTYPEGTQAIYKCRPGYRSLGNVIMVCRKGEWVALNPLRKCQKRPCGHPGDTPFGTFTLTGGNVFEYGVKAVYTCNEGYQLLGEINYRECDTDGWTNDIPICEVVKCLPVTAPENGKIVSSAMEPDREYHFGQAVRFVCNSGYKIEGDEEMHCSDDGFWSKEKPKCVEISCKSPDVINGSPISQKIIYKENERFQYKCNMGYEYSERGDAVCTESGWRPLPSCEEKSCDNPYIPNGDYSPLRIKHRTGDEITYQCRNGFYPATRGNTAKCTSTGWIPAPRCTLKPCDYPDIKHGGLYHENMRRPYFPVAVGKYYSYYCDEHFETPSGSYWDHIHCTQDGWSPAVPCLRKCYFPYLENGYNQNYGRKFVQGKSIDVACHPGYALPKAQTTVTCMENGWSPTPRCIRVKTCSKSSIDIENGFISESQYTYALKEKAKYQCKLGYVTADGETSGSITCGKDGWSAQPTCIKSCDIPVFMNARTKNDFTWFKLNDTLDYECHDGYESNTGSTTGSIVCGYNGWSDLPICYERECELPKIDVHLVPDRKKDQYKVGEVLKFSCKPGFTIVGPNSVQCYHFGLSPDLPICKEQVQSCGPPPELLNGNVKEKTKEEYGHSEVVEYYCNPRFLMKGPNKIQCVDGEWTTLPVCIVEESTCGDIPELEHGWAQLSSPPYYYGDSVEFNCSESFTMIGHRSITCIHGVWTQLPQCVAIDKLKKCKSSNLIILEEHLKNKKEFDHNSNIRYRCRGKEGWIHTVCINGRWDPEVNCSMAQIQLCPPPPQIPNSHNMTTTLNYRDGEKVSVLCQENYLIQEGEEITCKDGRWQSIPLCVEKIPCSQPPQIEHGTINSSRSSQESYAHGTKLSYTCEGGFRISEENETTCYMGKWSSPPQCEGLPCKSPPEISHGVVAHMSDSYQYGEEVTYKCFEGFGIDGPAIAKCLGEKWSHPPSCIKTDCLSLPSFENAIPMGEKKDVYKAGEQVTYTCATYYKMDGASNVTCINSRWTGRPTCRDTSCVNPPTVQNAYIVSRQMSKYPSGERVRYQCRSPYEMFGDEEVMCLNGNWTEPPQCKDSTGKCGPPPPIDNGDITSFPLSVYAPASSVEYQCQNLYQLEGNKRITCRNGQWSEPPKCLHPCVISREIMENYNIALRWTAKQKLYSRTGESVEFVCKRGYRLSSRSHTLRTTCWDGKLEYPTCAKR
chain 2: ATENEGSTQAATSSNMAKTEHRKAAKQVVDEYIEKMLREIQLDRRKHTQNVALNIKLSAIKTKYLRELNVLEEKSKDELPSEIKAKLDAAFEKFKKDTLKPGEK
Take B1: the Kd (in general, the equilibrium constant for the complex coming apart) was 2000 nM.
